Experiment: yeast display, Sf9 membrane polyspecificity reagent, FACS + sequencing; frameworks hold sequencing errors
Procedure, shortened: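 A nanobody's polyreactivity label depends on the gate it was sorted from. Yeast display cells were stained with 10% biotinylated, detergent-solubilized Sf9 membrane reagent for 1 hour at 4 °C, enriched on streptavidin microbeads and sorted by FACS. The low and high (top ~1%) gates were set on anti-HA fluorescence for expression and streptavidin fluorescence for reagent binding.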

Sequence | polyreactivity (PSR sort gate)
QVEHVESGGALGQAGGSLRLSCAASGITFAPYAMGWYREAPGKETEFDAGINTGGSKYYADSVKGRFTISRDNAKNTFYVQMNSLKPEDTAVYFCATESYPADQDIPGSDYWGQGTQVTVSS | low polyreactivity
QVELQVSGGGLVRAGGSLRLSCAASGNIFDADIMGWYRQAPGKERELVASITGGGSTSYAESAKGRFTISRDNAKNAVYLQMNSLKPEDTAVYYCAKDGYVYGDWYTYAYDYWGQGTQVTVSS | low polyreactivity
QVELVESAGGLVQAGGSLRLSCAASGRIFAYNAMGWYRQAPGKERELVAAISQSGGSTYYADSVKGRFTISRANAKNTVYLQLNSLKPEDTAVYYCHAVYGRQYRGYNYKYYYWGQGTQVTVSS | high polyreactivity
QVELVESGAGLVQAGGSLRLSCAASGRIFRYYVKGWYRQAPGKESELVAAISSGGSTNYADSVKGRFTISRDNAKNTVYLQMNSLKPEDTAVYYCNRDIGGSSVLDDYWGQGTQVTVSS | low polyreactivity
QVELVESGGGLVQAGGSLRLSCAASGITFYVYTMGWYRQAPGKERELVAAINGSGGSTNYADSVKGRFTISRDIAKNTVFLQMNSLKPEDSAVYYCAADWSLRLYDYWGQGTQVTVSS | low polyreactivity
QVELVESGGGLVQAGGSLRLSCAASGRIFSPNAMGWYRQAPGKERELVAALTGSGGTTYYADSVKGRFKISRDNAKNTVYLQMNSLKREDTAVYYCAADLYPFSRNPRYQFLYNYWGQGTQVTVSS | low polyreactivity
QVELVESGGGLVQAGGSLSLSCAASGFTFVGNTMGWYRQAPGKEREWGAAIRGRDGRTYYADSVKGRFTISRDKAKNTVYLQMNSLKPEETAVYYCNVDVKYSVRSEIDYWGQRTQVTVSS | low polyreactivity
QVELVESGGGLVQGGGTLRLSCAASGRTFNRYAMGWYRQAPGKERELVASITRSGGSTYYADSVKGRFTISRENAKNTVSLQMNSLKPDHTAVYYCANRSSGCFGYWGQGTQVTLSS | high polyreactivity
QVHHVESAGGLVQAGGILRLSCAASGRTFGANAMGWYRQPPVKERELVAAISKSGGRTYYADSVTGRFTISRDNAKNTVYLQMNSLKPEDTEVYYCNKVMCVSQAGGFDYWGQGTQVTVSS | high polyreactivity
QVHHVESGGGLVQAGGSLRLSCAAYGFIFNVYAMGWYRQAPGKERELVAAISTSGSNTYYADSVKGRFTISRDNAKNTVYLQMNSLKPEDTADYYCAAAYRYPSGRSFGYWGQGTQVTVSS | high polyreactivity
QVHHVESGGGVVQAGGSLRLSCAASGRITYVNAMGWYRQPPGKESELVATITGSGDSKHYADSVKGRFTISRDNAMNTVYLQMNSLKPEVTAVYYGAADVYRYWQIYEYWGQGTQVTVSS | low polyreactivity
QVHIVESGGGLDQAGGSLRLSCAASGFTFNAYAMGWYRQAPGKERELVAAISGRGSSTYYADSVKGRFTISRDNAKNTVYLQMNSLKPEDTEVYYCATKFYYQYPYRGDYWGQGTEVTVSS | high polyreactivity
QVHLEESGGGLVQAGGSLRISCAASGSTFYYYAMGWYRQAPGKERELVAAISNRDGRTYYADSVKGRFTISRDNAKNTVYLQMNSLKPEDSAVYYCNAYSYGHYYWGQGTQVTVSS | high polyreactivity
QVHLEESGGGLVQAGGSLRLSCAASGGTILAYAMGWYRQAPGKERELVAAITRRGTRTYYADSVKGRFTISLDNAKNTVYLQMNSLKPEVTAVFYCAVSGGFYWGQGTQVTVSS | high polyreactivity
QVHLEESGGGLVQAGGSLRLSCAASGIIFHFNDRGWYRQATGKERELVAAITSGGSTNYADSVKGRFTISRDNAKNTVYLQMNSLKPEDTAVYYCAARRCLRLFAYRHGYWGQGTQVTVSS | low polyreactivity
QVHLEESGGGLVQAGGSLRLSSAASGSNFDYNAMGWYRQAPGKERELVAAISRTGGRTYYADSVKGRFTISRDNAKNTVYLQMNSLKPEDTAVYYWNAVNRIGGGDYDYWGLGTQVTVSS | low polyreactivity
QVHLEESGGRLVQEGGSLRISCAASGSILRSYAMGWYRQAPGKERELVAVINRGTSTNYADSVKGRFTISRDNAKNTVYLQMNSVKPEDTAVYYCAVAVLPWQLDSESYAEYDYWGEGTQVTVSS | low polyreactivity
